T1: Full length murine CD25 on HEK cells (mouse, UniProt P01590 22-268)
T1 sequence (looked up): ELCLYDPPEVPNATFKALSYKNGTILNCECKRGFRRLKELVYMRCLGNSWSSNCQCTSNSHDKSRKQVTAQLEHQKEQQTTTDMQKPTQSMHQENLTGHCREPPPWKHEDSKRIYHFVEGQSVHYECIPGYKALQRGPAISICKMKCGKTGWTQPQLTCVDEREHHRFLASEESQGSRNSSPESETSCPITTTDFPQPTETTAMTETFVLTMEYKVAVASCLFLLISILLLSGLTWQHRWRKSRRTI


Legend:
[1] = molecular target: the molecule itself; test: SEC; Superdex 200 Increase 10/300 GL, 0.5 ml/min, 10 mM HEPES pH 7.3, 140 mM NaCl; 500 ul sample at 0.5 mg/ml; apparent molecular weights against Bio-Rad gel filtration standard
[2] = molecular target: T1, Full length murine CD25 on HEK cells; test: cell-based or functional assay

| proliferation ([3H]thymidine) of the IL-2 dependent mouse T cell line SJL-PLP.1; potency against mouse IL-2 [2] | Binder | binding result [1] |
| --- | --- | --- |
| ~32 fold less potent than IL-2 | CD25-IL2 fusion protein (other, mouse, signal peptide in the construct; murine soluble CD25 (IL-2 receptor alpha chain), aa1-236 of NP_032393; 23-aa flexible linker; murine IL-2, aa20-169 of NP_032392; Glycosylated; about 70 kDa on SDS-PAGE, reducing and non-reducing; By SEC it runs as higher order multimers; also called CD25-IL2 FP; FP; source: HEK293F, stably transfected (pCMV), expression supernatant, purified (Ni-NTA); not shown: …) ELCLYDPPEVPNATFKALSYKNGTILNCECKRGFRRLKELVYMRCLGNSWSSNCQCTSNSHDKSRKQVTAQLEHQKEQQTTTDMQKPTQSMHQENLTGHCREPPPWKHEDSKRIYHFVEGQSVHYECIPGYKALQRGPAISICKMKCGKTGWTQPQLTCVDEREHHRFLASEESQGSRNSSPESETSCPITTTDFPQPTETTAMTETFVLTMEYKGGGGSTRGGGGSTGGGGSGGGGSSAPTSSSTSSSTAEAQQQQQQQQQQQQHLEQLLMDLQELLSRMENYRNLKLPRMLTFKFYLPKQATELKDLQCLEDELGPLRHVLDLTQSKSFQLEDAENFISNIRVTVVKLKGSDNTFECQFDDESATVVDFLRRWIAFCQSIISTSPQ | binds |
| ~320 fold less potent than IL-2 | IL2-CD25 fusion protein (other, mouse, signal peptide in the construct; murine IL-2, aa1-169 of NP_032392; 23-aa flexible linker; murine soluble CD25 (IL-2 receptor alpha chain), aa22-236 of NP_032393; Glycosylated; about 70 kDa on SDS-PAGE, reducing and non-reducing; By SEC it runs as higher order multimers; also called IL2-CD25 FP; FP; source: HEK293F, stably transfected (pIRES AcGFP1), expression supernatant, purified (Ni-NTA); not …) APTSSSTSSSTAEAQQQQQQQQQQQQHLEQLLMDLQELLSRMENYRNLKLPRMLTFKFYLPKQATELKDLQCLEDELGPLRHVLDLTQSKSFQLEDAENFISNIRVTVVKLKGSDNTFECQFDDESATVVDFLRRWIAFCQSIISTSPQGGGGSTRGGGGSTGGGGSGGGGSELCLYDPPEVPNATFKALSYKNGTILNCECKRGFRRLKELVYMRCLGNSWSSNCQCTSNSHDKSRKQVTAQLEHQKEQQTTTDMQKPTQSMHQENLTGHCREPPPWKHEDSKRIYHFVEGQSVHYECIPGYKALQRGPAISICKMKCGKTGWTQPQLTCVDEREHHRFLASEESQGSRNSSPESETSCPITTTDFPQPTETTAMTETFVLTMEYK | binds |

Reference: PMC7538601, “Low-Zone IL-2 Signaling: Fusion Proteins Containing Linked CD25 and IL-2 Domains Sustain Tolerogenic Vaccination in vivo and Promote Dominance of FOXP3^+ Tregs in vitro” (Frontiers in Immunology, 2020)
